Assay results: the MegaScale stability set (Tsuboyama et al. 2023)

B1: 5KPH (parent)
chain: EEKRQVKQVAKEKLLEQSPNSKVQVRRVQKQGNTIRVELELRTNGKKENYTVEVERQGNTWTVKRITRT

Variants of: B1
Test: folding stability dG (cDNA display proteolysis); higher = more stable
Conditions: PBS, room temperature

Variant | folding stability dG
Q8T | 3.51 kcal/mol
E55S | 3.56 kcal/mol
E55Y | 3.92 kcal/mol
E55F | 3.92 kcal/mol
E55T | 3.7 kcal/mol
E55N | 2.91 kcal/mol
E55R | 3.1 kcal/mol
E55V | 4.08 kcal/mol
V23G | 1.59 kcal/mol
V23N | 1.26 kcal/mol
V23D | 1.23 kcal/mol
V23C | 3.17 kcal/mol
K47T | 4.05 kcal/mol
K47Y | 3.8 kcal/mol
S18C | 3.86 kcal/mol
S18Q | 3.82 kcal/mol
S18L | 4.03 kcal/mol
S18F | 4.68 kcal/mol
S18P | 1.99 kcal/mol
L41V | 4.07 kcal/mol
L41H | 2.19 kcal/mol
L41E | 1.66 kcal/mol
K11V | 4.49 kcal/mol
K11C | 3.75 kcal/mol

Variant | folding stability dG
K11S | 3.8 kcal/mol
K11D | 1.94 kcal/mol
K11Y | 3.32 kcal/mol
T51F | 3.66 kcal/mol
T51G | 2.5 kcal/mol
T51I | 4.13 kcal/mol
T51A | 3.6 kcal/mol
E1H | 3.61 kcal/mol
E1T | 3.46 kcal/mol
E1Q | 3.64 kcal/mol
E1A | 3.75 kcal/mol
K13Y | 4.07 kcal/mol
K13V | 4.12 kcal/mol
K13Q | 3.24 kcal/mol
K13E | 2.79 kcal/mol
K13M | 3.7 kcal/mol
E16Q | 3.77 kcal/mol
E16F | 2.82 kcal/mol
E16S | 3.55 kcal/mol
E16M | 3.38 kcal/mol
E16Y | 2.61 kcal/mol
E16L | 3.47 kcal/mol
E16I | 3.04 kcal/mol
V6S | 3.37 kcal/mol

Variant | folding stability dG
V6R | 1.97 kcal/mol
V6L | 3.46 kcal/mol
V6N | 1.92 kcal/mol
K46H | 3.9 kcal/mol
K46M | 3.89 kcal/mol
K46P | 2.63 kcal/mol
K46T | 3.85 kcal/mol
K46S | 3.73 kcal/mol
G32W | 3.21 kcal/mol
G32M | 2.99 kcal/mol
E48M | 3.55 kcal/mol
E48C | 3.38 kcal/mol
E48H | 3.34 kcal/mol
E48S | 3.57 kcal/mol
E48T | 3.65 kcal/mol
E48F | 3.57 kcal/mol
E40W | 3.95 kcal/mol
E40I | 4.1 kcal/mol
E40N | 3.12 kcal/mol
E40D | 3.04 kcal/mol
E40K | 3.32 kcal/mol
E40F | 3.81 kcal/mol
E40M | 3.87 kcal/mol
E40H | 3.59 kcal/mol

Variant | folding stability dG
Q29N | 3.83 kcal/mol
Q29F | 4.45 kcal/mol
Q29S | 4.22 kcal/mol
Q29A | 3.84 kcal/mol
Q29M | 4.3 kcal/mol
L39C | 3.88 kcal/mol
L39V | 3.83 kcal/mol
L39R | -0.147 kcal/mol
L39F | 3.48 kcal/mol
A10P | 1.77 kcal/mol
A10Q | 1.91 kcal/mol
A10H | 1.69 kcal/mol
A10F | 2.24 kcal/mol
A10C | 3.26 kcal/mol
A10K | 1.92 kcal/mol
A10D | 1.8 kcal/mol
Q24Y | 4.48 kcal/mol
Q24V | 4.25 kcal/mol
Q24R | 4.41 kcal/mol
Q24D | 3.53 kcal/mol
R42G | 3.04 kcal/mol
R42W | 4.57 kcal/mol
R42F | 4.66 kcal/mol
R42D | 4.2 kcal/mol

Variant | folding stability dG
R42I | 4.28 kcal/mol
R42V | 4.14 kcal/mol
T34G | 3.44 kcal/mol
T34R | 3.63 kcal/mol
T34V | 4.08 kcal/mol
I66F | 3.04 kcal/mol
I66P | 1.72 kcal/mol
I66K | 1.54 kcal/mol
I66E | 1.1 kcal/mol
I66C | 2.88 kcal/mol
I66M | 3.38 kcal/mol
I66N | 1.2 kcal/mol
Q31N | 3.84 kcal/mol
Q31E | 4.05 kcal/mol
Q31C | 3.92 kcal/mol
Q31Y | 4.34 kcal/mol
Q31D | 3.89 kcal/mol
Q31K | 3.83 kcal/mol
E38K | 3.7 kcal/mol
E38M | 4.43 kcal/mol
E38L | 4.18 kcal/mol
T43K | 3.69 kcal/mol
T43G | 3.6 kcal/mol
T43I | 3.72 kcal/mol

Variant | folding stability dG
T43P | 2.17 kcal/mol
T60P | 1.45 kcal/mol
T60R | 3.97 kcal/mol
T60W | 4.16 kcal/mol
T60A | 3.83 kcal/mol
T60G | 4.12 kcal/mol
T60E | 4.16 kcal/mol
T60H | 4.02 kcal/mol
N59H | 3.62 kcal/mol
N59E | 3.92 kcal/mol
N59K | 3.73 kcal/mol
R4E | 4.22 kcal/mol
R4L | 3.54 kcal/mol
R4M | 3.84 kcal/mol
R4G | 3.38 kcal/mol
Q57L | 3.96 kcal/mol
Q57N | 3.9 kcal/mol
Q57V | 4.18 kcal/mol
Q57R | 3.73 kcal/mol
Q57I | 4.25 kcal/mol
Q57K | 3.83 kcal/mol
Q57H | 3.82 kcal/mol
Q57E | 4.17 kcal/mol
T67C | 3.68 kcal/mol

Variant | folding stability dG
T67E | 3.64 kcal/mol
T67P | 1.34 kcal/mol
T67Q | 3.54 kcal/mol
T67A | 3.46 kcal/mol
T67K | 3.55 kcal/mol
E53K | 2.54 kcal/mol
E53L | 4.04 kcal/mol
E53I | 4.15 kcal/mol
E53V | 3.94 kcal/mol
K22C | 3.65 kcal/mol
K22P | 2.37 kcal/mol
K22Y | 4.05 kcal/mol
K22E | 4.13 kcal/mol
K22L | 3.99 kcal/mol
R27G | 3.64 kcal/mol
R27Q | 3.3 kcal/mol
R27F | 3.84 kcal/mol
R27I | 3.22 kcal/mol
R27A | 3.61 kcal/mol
R27V | 3.12 kcal/mol
R27D | 3.1 kcal/mol
R27N | 3.56 kcal/mol
G58R | 2.97 kcal/mol
G58Q | 3.5 kcal/mol

Variant | folding stability dG
G58V | 3.02 kcal/mol
G58K | 3.4 kcal/mol
P19A | 2.83 kcal/mol
P19N | 2.57 kcal/mol
P19F | 2.54 kcal/mol
P19I | 2.83 kcal/mol
N20Q | 3.62 kcal/mol
N20M | 3.58 kcal/mol
N20I | 3.03 kcal/mol
N20K | 3.55 kcal/mol
N20G | 4.21 kcal/mol
N20F | 3.35 kcal/mol
R65Y | 3.7 kcal/mol
R65T | 4.05 kcal/mol
R65G | 3.6 kcal/mol
R65N | 3.73 kcal/mol
R65W | 3.63 kcal/mol
R65Q | 3.84 kcal/mol
R65I | 3.43 kcal/mol
V37Y | 2.32 kcal/mol
V37A | 2.15 kcal/mol
K7M | 4.8 kcal/mol
K7R | 3.85 kcal/mol
K7N | 3.39 kcal/mol

Variant | folding stability dG
K7I | 4.82 kcal/mol
K7C | 4.11 kcal/mol
K7H | 3.57 kcal/mol
L14N | 1.92 kcal/mol
L14C | 3.29 kcal/mol
L14E | 1.7 kcal/mol
R36I | 4.34 kcal/mol
R36N | 3.7 kcal/mol
R36V | 4.13 kcal/mol
R36T | 3.9 kcal/mol
R36A | 3.64 kcal/mol
R36L | 4.33 kcal/mol
R36D | 2.45 kcal/mol
N49Q | 3.93 kcal/mol
N49M | 4.18 kcal/mol
N49L | 4.4 kcal/mol
N49R | 4.09 kcal/mol
N49H | 4.04 kcal/mol
N49P | 2.7 kcal/mol
T62S | 3.75 kcal/mol
T62M | 3.97 kcal/mol
T62I | 4.26 kcal/mol
T62K | 3.96 kcal/mol
T62C | 3.48 kcal/mol

Variant | folding stability dG
T62N | 3.62 kcal/mol
K30D | 3.8 kcal/mol
K30H | 4.05 kcal/mol
K30F | 4.62 kcal/mol
S21V | 3.17 kcal/mol
S21N | 2.38 kcal/mol
S21G | 4.01 kcal/mol
S21K | 2.16 kcal/mol
K64N | 3.48 kcal/mol
K64R | 3.94 kcal/mol
K64Y | 3.5 kcal/mol
K64L | 4.27 kcal/mol
K64S | 3.94 kcal/mol
K64G | 3.25 kcal/mol
V52A | 3.31 kcal/mol
V52Q | -0.464 kcal/mol
V52C | 2.92 kcal/mol
W61R | 1.41 kcal/mol
W61M | 3.21 kcal/mol
W61C | 2.68 kcal/mol
V25I | 3.76 kcal/mol
V25Y | 2.81 kcal/mol
V25N | 1.72 kcal/mol
G45H | 3.44 kcal/mol

Variant | folding stability dG
E12A | 4.15 kcal/mol
E12S | 3.79 kcal/mol
E12K | 3.83 kcal/mol
E12T | 3.6 kcal/mol
E12H | 3.53 kcal/mol
T69P | 2.87 kcal/mol
T69D | 3.73 kcal/mol
T69K | 3.73 kcal/mol
T69L | 3.98 kcal/mol
T69E | 3.82 kcal/mol
L15E | 3.1 kcal/mol
L15A | 2.99 kcal/mol
L15N | 2.5 kcal/mol
L15D | 2.07 kcal/mol
L15I | 3.02 kcal/mol
L15T | 2.92 kcal/mol
V9R | 3.07 kcal/mol
I35K | 1.48 kcal/mol
I35N | 2.81 kcal/mol
I35S | 3.37 kcal/mol
I35V | 3.81 kcal/mol
I35F | 4.81 kcal/mol
I35H | 4.15 kcal/mol
I35P | 0.813 kcal/mol

Variant | folding stability dG
V54Y | 2.94 kcal/mol
V54A | 2.62 kcal/mol
V54R | 0.035 kcal/mol
V54W | 2.75 kcal/mol
V28W | 3.85 kcal/mol
V28D | 1.44 kcal/mol
V28I | 3.99 kcal/mol
V28S | 2.5 kcal/mol
V28T | 3.24 kcal/mol
V28N | 1.55 kcal/mol
V28P | 1.34 kcal/mol
E2H | 3.5 kcal/mol
E2S | 3.47 kcal/mol
E2N | 3.28 kcal/mol
E2L | 3.66 kcal/mol
K3S | 4.17 kcal/mol
K3V | 4.72 kcal/mol
K3F | 4.65 kcal/mol
N44T | 3.27 kcal/mol
N44G | 3.79 kcal/mol
N44R | 3.66 kcal/mol
N44P | 3.4 kcal/mol
N44I | 3.46 kcal/mol
N44C | 3.5 kcal/mol

Variant | folding stability dG
R68W | 3.07 kcal/mol
R68Y | 3.32 kcal/mol
R68P | 3.54 kcal/mol
R68G | 2.87 kcal/mol
R68K | 3.99 kcal/mol
R68N | 3.89 kcal/mol
R68H | 3.59 kcal/mol
R56E | 2.88 kcal/mol
R56A | 3.25 kcal/mol
R56H | 3.38 kcal/mol
Q5D | 3.73 kcal/mol
Q5P | 2.86 kcal/mol
Q5L | 3.9 kcal/mol
Q5C | 3.54 kcal/mol
R26G | 3.32 kcal/mol
R26F | 3.7 kcal/mol
R26C | 3.65 kcal/mol
R26Q | 3.49 kcal/mol
R26S | 3.35 kcal/mol
R26Y | 3.53 kcal/mol
R26P | 1.51 kcal/mol
R26H | 3.56 kcal/mol
V63S | 1.81 kcal/mol
V63E | 1.26 kcal/mol

Variant | folding stability dG
V63T | 2.51 kcal/mol
N33C | 3.22 kcal/mol
N33G | 3.58 kcal/mol
N33P | 3.55 kcal/mol
N33M | 3.74 kcal/mol
N33Y | 3.5 kcal/mol
N33F | 3.67 kcal/mol
N33A | 3.79 kcal/mol
Q17S | 3.59 kcal/mol
Q17V | 3.91 kcal/mol
Q17T | 3.83 kcal/mol
Q17Y | 4 kcal/mol
Q17W | 3.6 kcal/mol
Q17H | 4.04 kcal/mol
Q17P | 1.82 kcal/mol
Q17M | 4.52 kcal/mol
Y50C | 2.79 kcal/mol
Y50N | 0.663 kcal/mol
Y50R | 1.2 kcal/mol
Y50V | 3.56 kcal/mol
Y50A | 2.98 kcal/mol
Y50T | 1.47 kcal/mol
